The test system of one series is Fusarium culmorum. Conditions: low salt in vitro assay conditions; U.S. Pat. No. 6,916,970; cited from earlier work.
In the next series the test system is Verticillium dahliae. Conditions: low salt in vitro assay conditions; U.S. Pat. No. 6,916,970; cited from earlier work.
For the next series, the system named is F. graminearum PH-1. In kind it is cell-based, Fusarium graminearum.
Series [1] can be described thus: protein-lipid overlay (PIP Strips). In kind it is binding. As for the experimental part: (§1) To test the binding properties of MtDefS peptide A (MtDefS Peptide A; SEQ ID NO:4) and MtDef5FL1 (SEQ ID NO:7), a protein-lipid overlay experiment was performed using PIP Strips™ (2×6 cm nitrocellulose membranes) that are spotted with 100 pmol of various biologically active lipids (Echelon Biosciences, Salt Lake City, Utah). Briefly, lipid strips were blocked with 10 mL of blocking buffer, PBS-T/3% fat free BSA for 12-16 h at 4° C. with gentle agitation. The blocking buffer was discarded and the lipid strips were incubated with 5 mL of PBS-T/3% fat free BSA containing 1 μg/ml of MtDef5 peptide A or MtDef5FL1 for 60 min at 4° C. After hybridization, protein solution was discarded and the strips were then washed with PBS-T three times with gentle agitation for 20 minutes each at room temperature. The protein-lipid interactions were detected by subsequently incubating lipid strips with rabbit anti-MtDef5 peptide A derived synthetic peptide (1 μg/ml) diluted in 5 mL of blocking buffer with gentle agitation for 60 min at 4° C. The lipid strips were washed with PBS-T two times with gentle agitation, for 15 minutes each wash, at room temperature. HRP-conjugated Goat Anti-Rabbit IgG secondary antibody (Thermo Scientific, Cat no: SA 1-9510) diluted 1:4000 in blocking buffer was added to the lipid strips and incubated for 60 min at 4° C. After two washes with PBS-T, chemiluminescence was detected using SuperSignal® West Femto Maximum Sensitivity substrate kit (Thermo Scientific, Cat no: 34094) following the manufacturer's protocol.
(§2) To test the binding properties of MtDef5 and its γ-core motif variants, a protein-lipid overlay experiment was performed using PIP Strips™ (2×6 cm nitrocellulose membranes) that are spotted with 100 pmol of various biologically active lipids, respectively (Echelon Biosciences, Salt Lake City, Utah). To determine relative degree of the binding of MtDef5, PIP Array (Echelon Biosciences, UT) pre-spotted with concentration gradient of various phosphoinositides was used. Briefly, lipid strips and arrays were blocked with 10 mL of blocking buffer, PBS-T/3% fat free BSA for 12-16 h at 4° C. with gentle agitation. The blocking buffer was discarded and the lipid strips and arrays were incubated with 5 mL of PBS-T/3% fat free BSA, containing 3 μg/ml of MtDef5 or its variants for 60 min at 4° C. After hybridization, protein solution was discarded and the strips and arrays were then washed with PBS-T three times with gentle agitation for 20 minutes each at room temperature. The protein-lipid interactions were detected by subsequently incubating lipid strips and arrays with rabbit anti-MtDef5 derived synthetic peptide (1 μg/ml) antibody diluted in 5 mL of blocking buffer with gentle agitation for 60 min at 4° C. The lipid strips and arrays were washed with PBS-T two times with gentle agitation, for 15 minutes each wash, at room temperature. HRP-conjugated Goat Anti-Rabbit IgG secondary antibody (Thermo Scientific, Cat no: SA 1-9510) diluted 1:4000 in blocking buffer was added to the lipid strips and arrays and incubated for 60 min at 4° C. After two washes with PBS-T, chemiluminescence was detected using SuperSignal® West Femto Maximum Sensitivity substrate kit (Thermo Scientific, Cat no: 34094) following the manufacturer's protocol.

Series [2] in a line: protein-lipid overlay (PIP Strips, PIP Array). In kind it is binding. Conditions: for binding to PI3P, PI4P and PI5P: Example 2, PIP Strips, 1 μg/ml protein, FIG. 9. As for the experimental part: as §1
as §2, with “After hybridization, protein solution was discarded and the strips and arrays were then washed with PBS-T three times with gentle agitation for 20 minutes each at room temperature.” left out, “The lipid strips and arrays were washed with PBS-T two times with gentle agitation, for 15 minutes each wash, at room temperature. HRP-conjugated Goat Anti-Rabbit IgG secondary antibody (Thermo Scientific, Cat no: SA 1-9510) diluted 1:4000 in blocking buffer was added to the lipid strips and arrays and incubated for 60 min at 4° C.” left out

The test system of a further series is Fusarium virguliforme. In kind it is cell-based.
A further series relates to Botrytis cinerea. In kind it is cell-based. Conditions: Example 6, FIG. 15.
The subject of a further series is N. crassa. In kind it is cell-based, Neurospora crassa.
Series [3] can be described thus: phospholipid binding / protein-lipid overlay. Conditions: Example 6, PIP strip, 3 μg/ml protein, FIG. 18A. On the procedure:
as §2, with “After hybridization, protein solution was discarded and the strips and arrays were then washed with PBS-T three times with gentle agitation for 20 minutes each at room temperature.” left out, “The lipid strips and arrays were washed with PBS-T two times with gentle agitation, for 15 minutes each wash, at room temperature. HRP-conjugated Goat Anti-Rabbit IgG secondary antibody (Thermo Scientific, Cat no: SA 1-9510) diluted 1:4000 in blocking buffer was added to the lipid strips and arrays and incubated for 60 min at 4° C.” left out

Series [4] concerns F. graminearum conidia and germlings. In kind it is cell-based, Fusarium graminearum. Conditions: DyLight550-labeled, 3μM, 3 hr, FIG. 17.
For series [5], the system named is Colletotrichum higginsianum. In kind it is cell-based. Conditions: Example 6, FIG. 15.
The nature of series [6]: protein cross-linking (BS3) oligomerization assay. Conditions: SDS-PAGE, FIG. 19, FIG. 23. On the procedure:
(§3) To determine the oligomeric status of MtDef5FL1 and its γ-core motif variants, protein cross-linking experiments were performed in the presence or absence of PIPs cross-linked with bis[sulfosuccinimidyl] suberate (BS3) substrate. Briefly, MtDef5 and its γ-core motif variants, prepared in 1× PBS buffer, at 1.5 mg/ml (5 μl) were incubated with 2.73 mM PI(3)P or PI(4)P or PI(5)P (1.5 μl) at room temperature for 30 min. The cross-linking reaction was initiated by addition of freshly dissolved water soluble 12.5 mM BS3 (0.5 μl) and incubated for 30 min at room temperature. After crosslinking, samples were reduced with 100 mM dithiothreitol (DTT) and separated on a 4-20% (Bio-Rad, TGX Stain-Free™ precast gels) SDS-PAGE. The oligomerization pattern was visualized using a Bio-Rad ChemiDoc XRS+ system.

Another series concerns Alternaria brassicicola. In kind it is cell-based. Conditions: Example 6, FIG. 15.
Another series concerns F. virguliforme. In kind it is cell-based, Fusarium virguliforme.
In another series the test system is F. graminearum. In kind it is cell-based, Fusarium graminearum.
The test system of a further series is Neurospora crassa. In kind it is cell-based.
Series [7] concerns the molecule itself. Kind of series: BS3 cross-linking with PIP, SDS-PAGE; self-oligomerization. As for the experimental part:
as §3

Setting [8] is: activity of the indicated protein against Fusarium graminareum, Table 1, read-out: IC50 (nm).
[9] abbreviates: Example 2, PIP Strips, 1 μg/ml protein, FIG. 9.
Where [10] appears, read: Example 6, FIG. 14, read-out: IC50 value against F. graminearum.
The mark [11] stands for this setting: Example 6, PIP strip, 3 μg/ml protein, FIG. 18A.

The values that follow come from patent US20190194268A1 (DONALD DANFORTH PLANT SCIENCE CENTER, published 2019).

Several values for one entry are separate records, joined by “and”; a condition that tells them apart may be missing. Equal entries are not always repeated. Entries after “also recorded” stand apart in the source; their conditions may differ. Where two headings read alike, the source gives them in different places. Some results are limits rather than exact numbers.

For “MsDef1: Alfalfa (Medicago sativa) Defensin 1, SEQ ID NO:79 (RTCENLADKYRGPCFSGCDTHCTTKENAVSGRCRDDFRCWCTKRC; listed as Medicago sativa)”, the “IC50, Fusarium culmorum growth” value with Fusarium culmorum was 1 µg/mL. For the same molecule, the “IC50, Verticillium dahliae growth” value with Verticillium dahliae is 4 µg/mL.

The term IC50 denotes the midpoint of a concentration-inhibition curve. Take “TPP3: Tomato (Solanum lycopersicum) defensin peptide, SEQ ID NO:83 (QQICKAPSQTFPGLCFMDSSCRKYCIKEKFTGGHCSKLQRKCLCTKPC; listed as Solanum lycopersicum) [reference compound]”: in the series with F. graminearum PH-1 (setting [8]), the IC50 amounted to 500 nM.

Take “NaD1: Nicotiana alata defensin peptide, SEQ ID NO:81 (RECKTESNTFPGICITKPPCRKACISEKFTDGHCSKILRRCLCTKPC; listed as Nicotiana alata) [reference compound]”: in the series with F. graminearum PH-1 (setting [8]), the IC50 came to 500 nM.

Consider “MtDef5A: single 50-amino acid MtDef5 defensin peptide A, SEQ ID NO:4 (KLCQKRSTTWSGPCLNTGNCKRQCINVEHATFGACHRQGFGFACFCYKKC; listed as Medicago truncatula)”, for which, in series [1] (setting [9]), the “binding to PI3,4P2” value is given as “also binds”, the “binding to PI3,5P2” value is given as “also binds”, the “binding to PI4,5P2” value is given as “also binds” and the “binding to PS” value was “fails to bind”. Moreover, the concentration for half-maximal inhibition (IC50) in the series on F. graminearum PH-1 (setting [8]) was in the range of 500 to 750 nM. Further, the “binding to PI3P, PI4P and PI5P” value in series [2] is reported as “much less affinity than MtDef5FL1”.

As to “MtDef4: Medicago truncatula defensin peptide, SEQ ID NO:76 (RTCESQSHKFKGPCASDHNCASVCQTERFSGGHCRGFRRRCFCTTHC; listed as Medicago truncatula) [reference compound]”, the “minimal inhibitory concentration (MIC or IC100) against F. graminearum” value in the series on F. graminearum PH-1 (Example 6, FIG. 14) came to 6 µM. In addition, the IC50 in the series with F. graminearum PH-1 (setting [10]) was in the range of 750 to 1500 nM.

B1: MtDef5FL1: Medicago truncatula protein with MtDef5 defensin peptides A and B connected by a 7-amino acid linker; SEQ ID NO:7, expressed in Pichia (protein, listed as Medicago truncatula)
chain: CQKRSTTWSGPCLNTGNCKRQCINVEHATFGACHRQGFGFACFCYKKCAPKKVEPKLCERRSKTWSGPCLISGNCKRQCINVEHATSGACHRQGIGFACFCKKKC
Consider B1, for which the “IC100 value against F. virguliforme” value in the series on Fusarium virguliforme stood at 0.18 µM. Further, the “antifungal activity against F. virguliforme” value in the series on Fusarium virguliforme is listed as “potent antifungal activity”. The “concentration inhibiting conidial germination completely (100% growth inhibition)” value turned out to be 0.18 µM in the series on Fusarium virguliforme; 0.18 µM with F. graminearum PH-1 (microscopic observation after 14-16 hr incubation, FIG. 5B); 0.18 µM in the series with Neurospora crassa. For the same molecule, the IC50 with Fusarium virguliforme (read-out: IC50 value against F. virguliforme) was 90 nM; with F. graminearum PH-1 (Example 1, FIG. 5A, read-out: IC50 value against F. graminearum) it was 90 nM; in the series with F. graminearum PH-1 (setting [10]), 250 to 300 nM; in the series with F. graminearum PH-1 (setting [8]), 90 nM; with Neurospora crassa (read-out: IC50 value against N. crassa), 90 nM; with Neurospora crassa (read-out: IC50 value against Neurospora crassa), 250 to 300 nM. Moreover, the “antifungal activity against Botrytis cinerea (Bci)” value with Botrytis cinerea is recorded as “potent antifungal activity”. The “SG uptake (plasma membrane permeabilization)” value is given as “SG uptake was observed” in the series with N. crassa; “SG uptake was observed” with F. virguliforme; “SG uptake was observed” in the series with F. graminearum (0.180 μM (IC100) protein + 0.5 μm SG, 2 hrs, FIG. 6). Moreover, the “SG uptake in hyphal cells” value in the series on N. crassa is on record as “SG uptake was visible”; in the series with F. graminearum (0.75 μM MtDef5FL1, 3 hr, FIG. 16) it was “SG uptake was visible”. Besides, the “binding to phoshatidic acid (PA)” value in series [3] was “binds to a lesser extent”. For the same molecule, the “binding to PI3,4P2” value in series [1] (setting [9]) is listed as “binds to a lesser extent”. For the same molecule, the “binding to PI3,5P2” value in [1] (setting [9]) and in [1] (setting [11]) was “binds to a lesser extent” in each case. Besides, the “binding to PI4,5P2” value in series [1] (setting [9]) and in [1] (setting [11]) was “binds to a lesser extent” in each case. The “binding to PS” value in [1] (setting [9]) was “binding to PS, is generated”. The “binding to phosphatidylserine (PS)” value in series [1] (setting [11]) is “binds to a lesser extent”. Further, the “internalization and localization in fungal cells” value in [4] is recorded as “is internalized by fungal cells; also recorded: diffuse localization within the cytoplasm”. Moreover, the “antifungal activity against Colletotrichum higginsianum” value in series [5] was “potent antifungal activity”. In the series with F. graminearum PH-1 (Example 1, FIG. 5A), the “IC100 value against F. graminearum” value turned out to be 0.18 µM. In addition, the “minimal inhibitory concentration (MIC or IC100) against F. graminearum” value was 0.75 µM in the series on F. graminearum PH-1 (Example 6, FIG. 14) and 0.7 to 0.75 µM in the series with F. graminearum PH-1 (Example 6, FIG. 14, listed as MtDef5). Besides, in the series with F. graminearum PH-1 (against F. graminearum), the “potency relative to MtDef4, based on the MIC values” was in the range of 3 to 5 fold. For the same molecule, the “oligomerization in presence of PIPs” value in series [6] is “formed higher-order oligomers only in the presence of PIPs; also recorded: forms higher order oligomers in presence of PIPs”. Besides, in [2], the “binding to PI3P, PI4P and PI5P” value was “strongly binds; also recorded: significantly increases its binding affinity”. In addition, the “binding to PI3P, PI4P and PI5P (PIPs)” value in [2] (Example 6, PIP strip, 3 μg/ml protein, FIG. 18A, FIG. 22) was “strongly binds”. For the same molecule, in series [2] (PIP Array, FIG. 18B), the “amount of PIP per spot at which binding to all three PIPs was observed” value is reported as not above 12.5 pmoles per spot. The “antifungal activity against Alternaria brassicicola” value in the series with Alternaria brassicicola is listed as “potent antifungal activity”. Further, in the series with Neurospora crassa, the “IC100 value against N. crassa” value came out at 0.18 µM. For the same molecule, in the series on Neurospora crassa, the “minimal inhibitory concentration (MIC or IC100) against Neurospora crassa” value is 0.7 to 0.75 µM and 0.75 µM.

B2: MtDef5FL1_V1 (other)
chain: KLCQAASTTWSGPCLNTGNCKRQCINVEHATFGACAAQGFGFACFCYKKCAPKKVEPKLCEAASKTWSGPCLISGNCKRQCINVEHATSGACAAQGIGFACFCKKKC
notes: Alanine variant expressed in P. pastoris; also called MtDef5FL1 γ-core motif variant V1
For B2, the binding result in series [7] is listed as “no binding (tested: 1.5 mg/ml protein)”. Further, in series [6], the “oligomerization in presence of PIPs” value was “no formation of higher order oligomers”.
